Positions count from the first letter of the chain named.
B1: TCR 43 (codon optimized, cysteine modified version) (TCR, V domains shown)
V domain 1: QKEVEQNSGPLSVPEGAIASLNCTYSDRGSQSFFWYRQYSGKSPELIMFIYSNGDKEDGRFTAQLNKASQYVSLLIRDSQPSDSATYLCAVNVPTSGTYKYIFGTGTRLKVLA
V domain 2: EPEVTQTPSHQVTQMGQEVILRCVPISNHLYFYWYRQILGQKVEFLVSFYNNEISEKSEIFDDQFSVERPDGSNFTLKIRSTKLEDSAMYFCASTPRDSYEQYFGPGTRLTVTE
B2: TCR 33 (codon optimized, cysteine modified version) (TCR, V domains shown)
V domain 1: B1 V domain 1 with V93A, P94H, T95H, S96T, T98G, Y99F, Y101T, T105A, K110F, L112K
V domain 2: B1 V domain 2 with S99T
B3: TCR 49 (codon optimized, cysteine modified version) (TCR, V domains shown)
V domain 1: B1 V domain 1 with V93I, P94G
V domain 2: B1 V domain 2 with D98Y
B4: TCR 35 (codon optimized, cysteine modified version) (TCR, V domains shown)
V domain 1: KDQVFQPSTVASSEGAVVEIFCNHSVSNAYNFFWYLHFPGCAPRLLVKGSKPSQQGRYNMTYERFSSSLLILQVREADAAVYYCAVAGDYKLSFGAGTTVTVRA
V domain 2: DSGVTQTPKHLITATGQRVTLRCSPRSGDLSVYWYQQSLDQGLQFLIQYYNGEERAKGNILERFSAQQFPDLHSELNLSSLELGDSALYFCASTTSGDSSYNEQFFGPGTRLTVLE
B5: TCR 32 (codon optimized, cysteine modified version) (TCR, V domains shown)
V domain 1: TQLLEQSPQFLSIQEGENLTVYCNSSSVFSSLQWYRQEPGEGPVLLVTVVTGGEVKKLKRLTFQFGDARKDSSLHITAAQPGDTGLYLCAGGSNYKLTFGKGTLLTVNP
V domain 2: DSGVTQTPKHLITATGQRVTLRCSPRSGDLSVYWYQQSLDQGLQFLIQYYNGEERAKGNILERFSAQQFPDLHSELNLSSLELGDSALYFCASSVGGDHSDEQFFGPGTRLTVLE
B6: TCR 31 (codon optimized, cysteine modified version) (TCR, V domains shown)
V domain 1: DQQVKQNSPSLSVQEGRISILNCDYTNSMFDYFLWYKKYPAEGPTFLISISSIKDKNEDGRFTVFLNKSAKHLSLHIVPSQPGDSAVYFCAASERGTYKYIFGTGTRLKVLA
V domain 2: GAGVSQSPSNKVTEKGKDVELRCDPISGHTALYWYRQSLGQGLEFLIYFQGNSAPDKSGLPSDRFSAERTGGSVSTLTIQRTQQEDSAVYLCASSRFLGSTDTQYFGPGTRLTVLE
B7: TCR 34 (codon optimized, cysteine modified version) (TCR, V domains shown)
V domain 1: ELKVEQNPLFLSMQEGKNYTIYCNYSTTSDRLYWYRQDPGKSLESLFVLLSNGAVKQEGRLMASLDTKARLSTLHITAAVHDLSATYFCAVSGTYKYIFGTGTRLKVLA
V domain 2: ETGVTQSPTHLIKTRGQQVTLRCSSQSGHNTVSWYQQALGQGPQFIFQYYREEENGRGNFPPRFSGLQFPNYSSELNVNALELDDSALYLCASSSYAGSYEQYFGPGTRLTVTE

target: T1, HLA-A2/E7 (11-19) tetramer (human; HPV 16); experiment: tetramer flow cytometry; transfected 1:1 CD4+ and CD4+/CD8+ Jurkat-derived cells;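 note: cells transiently transfected with TCR plasmids, stained 48 h later with HLA-A*02:01 peptide-MHC tetramer plus anti-CD8 antibody, read by flow cytometry to assess CD8-independent tetramer binding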
T1 construct: also called E7(11-19) peptide-MHC tetramer; E7 (11-19)-loaded tetramer
Method: For transfection, the CD4+ and CD4+/CD8+ cell mixtures were transiently transfected with TCR-encoding plasmids and 48 hours after transfection, cells were assessed by flow cytometry for (1) binding of the target peptide in the context of an MHC molecule (HLA:A02:01) by staining with an E6(29-38) peptide- or an E7(11-19) peptide-MHC tetramer reagent, and/or (2) CD8+ independent binding of the target by co-staining the tetramer-labeled cells with an anti-CD8 antibody.

First: B1
Second: B2
The “% cells in E7 tet+/CD8+ quadrant” value of the first is lower: 3.82% for the first, 22.6% for the second.

Compared with B3, B4 is higher in “% cells in E7 tet+/CD8+ quadrant” value: 5.54% for the first, 14.5% for the second.

First: B5
Second: B6
The “% cells in E7 tet+/CD8+ quadrant” value of the first is higher: 25.3% for the first, 4.52% for the second.

With B7 the “% cells in E7 tet+/CD8+ quadrant” value was 26.3%.

First: B1
Second: B2
The “% cells in E7 tet+/CD8- quadrant” value of the first is lower: 1.88% for the first, 14% for the second.

Compared with B3, B4 is higher in “% cells in E7 tet+/CD8- quadrant” value: 3.06% for the first, 7.18% for the second.

Compared with B5, B6 is lower in “% cells in E7 tet+/CD8- quadrant” value: 33.5% for the first, 0.042% for the second.

In the case of B7, the “% cells in E7 tet+/CD8- quadrant” value is reported as 26%.

Going from B1 to B2, the “% cells in E7 tet-/CD8+ quadrant” value falls from 37.6% to 12.8%.

First: B3
Second: B4
The “% cells in E7 tet-/CD8+ quadrant” value of the first is lower: 27.2% for the first, 35.1% for the second.

Compared with B5, B6 is higher in “% cells in E7 tet-/CD8+ quadrant” value: 7.53% for the first, 21.1% for the second.

B7 was tested, and the “% cells in E7 tet-/CD8+ quadrant” value was 6.85%.

Going from B1 to B2, the “% cells in E7 tet-/CD8- quadrant” value falls from 56.7% to 50.6%.

Going from B3 to B4, the “% cells in E7 tet-/CD8- quadrant” value falls from 64.3% to 43.2%.

First: B5
Second: B6
The “% cells in E7 tet-/CD8- quadrant” value of the first is lower: 33.7% for the first, 74.3% for the second.

In the case of B7, the “% cells in E7 tet-/CD8- quadrant” value is reported as 40.9%.
